Measurements as given in US20230012273A1 (Boehringer Ingelheim, published 2023).
Changes are numbered by the printed parent chain. One block for each binder: values may come before it.

Legend:
[1] = biological target: T1, full-length human SIRPβL (NP_001129316.1) on cells (human, UniProt Q5TFQ8 30-398); experiment: flow cytometry, U937 SIRPα-KO cells expressing full-length human SIRPβL
T1 construct: one molecule for U937 SIRPα-KO transfectants (NP_001129316.1) and Expi-CHO transfectants (Q5TFQ8); also called SIRPβ1v3; βL WT
Experimental: (§1) Antibody binding to cells expressing full-length human SIRPβ1 (NP_006056.2) and SIRPβL (NP_001129316.1) is evaluated by flow cytometry. SIRPβ1- or SIRPβL-expressing U937^{SIRPα KO} cells are blocked with donkey IgG and incubated on ice with increasing concentrations of antibodies for 60 minutes, washed and stained with AF647-conjugated donkey F(ab′)₂ anti-human IgG secondary reagent. Cells are washed, fixed, and analyzed by flow cytometry. Median fluorescent intensity is determined and used as a measure of antibody binding.

[2] = biological target: T2, full-length human SIRPγ (NP_061026.2) on cells (human, UniProt Q9P1W8 29-387); experiment: flow cytometry, primary human CD3+ T cells; endogenous SIRPγ on primary human CD3+ T cells
T2 construct: on CHO and Expi-CHO cells; endogenous on primary human CD3+ T cells; also called γ WT
Experimental: Antibody binding to primary human T cells expressing endogenous SIRPγ is evaluated by flow cytometry. Human peripheral blood mononuclear cells (PBMCs) are blocked with donkey IgG and incubated on ice with increasing concentrations of antibody for 60 minutes, washed and stained with AF647-conjugated donkey F(ab′)₂ anti-human IgG secondary reagent. […] Cells are washed, fixed, and analyzed by flow cytometry. Median fluorescent intensity of CD3+ gated population is determined and used as a measure of antibody binding.

[3] = biological target: T3, full-length cyno SIRPα (XP_015313155) on CHO-K1 cells, clone P3HD10 (cynomolgus monkey); experiment: flow cytometry, CHO-K1 cells
T3 chain: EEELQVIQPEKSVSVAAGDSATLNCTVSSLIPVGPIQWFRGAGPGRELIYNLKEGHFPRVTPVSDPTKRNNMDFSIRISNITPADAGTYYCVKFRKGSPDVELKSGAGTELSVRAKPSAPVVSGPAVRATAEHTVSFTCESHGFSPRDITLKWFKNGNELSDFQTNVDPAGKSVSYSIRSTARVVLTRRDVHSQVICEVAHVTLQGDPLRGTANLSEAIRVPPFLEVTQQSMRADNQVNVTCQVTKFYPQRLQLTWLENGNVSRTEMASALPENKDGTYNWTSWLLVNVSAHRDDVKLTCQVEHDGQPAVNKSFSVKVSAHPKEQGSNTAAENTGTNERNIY
Experimental: as §1, with “cynomolgus (cyno) SIRPα was” for “full-length human SIRPβ1 (NP_006056.2) and SIRPβL (NP_001129316.1) is”, “CHO-K1 cells expressing full-length cyno SIRPα; derived from protein sequence accession numbers (A) EGM-02252; (B) XP_015313155;” for “SIRPβ1-”, “(C) NP_001271679,” for “SIRPβL-expressing U937^{SIRPα KO} cells”

[4] = biological target: T4, full-length cyno SIRPα (NP_001271679) on CHO-K1 cells, clone HC6 (cynomolgus monkey, UniProt A0A2K5VYQ9); experiment: flow cytometry, CHO-K1 cells
T4 construct: whole, on cells
T4 sequence: T3 chain with P62A, F163V, V185L
Experimental: as §1, with “cynomolgus (cyno) SIRPα was” for “full-length human SIRPβ1 (NP_006056.2) and SIRPβL (NP_001129316.1) is”, “CHO-K1 cells expressing full-length cyno SIRPα; derived from protein sequence accession numbers (A) EGM-02252; (B) XP_015313155;” for “SIRPβ1-”, “(C) NP_001271679,” for “SIRPβL-expressing U937^{SIRPα KO} cells”

[5] = biological target: T5, full-length cynomolgus SIRPα (XP_015313155) on CHO cells, clone P3HD10 (cynomolgus monkey, UniProt A0A2K5VYQ9 31-507); experiment: flow cytometry, CHO cells
T5 construct: whole, on cells; also called XP_015313155 Clone P3HD10
T5 sequence: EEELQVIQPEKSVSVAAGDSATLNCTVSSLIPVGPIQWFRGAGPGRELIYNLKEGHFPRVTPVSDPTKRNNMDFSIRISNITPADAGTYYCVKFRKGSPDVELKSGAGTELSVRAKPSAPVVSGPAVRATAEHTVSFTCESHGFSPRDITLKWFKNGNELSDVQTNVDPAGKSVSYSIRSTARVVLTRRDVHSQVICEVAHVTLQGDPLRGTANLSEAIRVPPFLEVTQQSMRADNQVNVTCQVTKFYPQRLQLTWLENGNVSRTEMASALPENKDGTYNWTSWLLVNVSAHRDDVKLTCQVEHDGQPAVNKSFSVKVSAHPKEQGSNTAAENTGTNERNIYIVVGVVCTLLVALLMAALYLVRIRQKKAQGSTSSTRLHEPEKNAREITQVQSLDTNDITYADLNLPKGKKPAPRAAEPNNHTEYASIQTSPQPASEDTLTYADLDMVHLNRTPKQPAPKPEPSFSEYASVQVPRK
Experimental: as §1, with “cynomolgus (cyno) SIRPα was” for “full-length human SIRPβ1 (NP_006056.2) and SIRPβL (NP_001129316.1) is”, “CHO-K1 cells expressing full-length cyno SIRPα; derived from protein sequence accession numbers (A) EGM-02252; (B) XP_015313155;” for “SIRPβ1-”, “(C) NP_001271679,” for “SIRPβL-expressing U937^{SIRPα KO} cells”

[6] = biological target: T6, recombinant human SIRPγ extracellular domain (ECD)/His protein (NP_061026.2) (human, UniProt Q9P1W8 29-360); experiment: ELISA, coated SIRPγ ECD/His
T6 construct: coated on ELISA plates; also called recombinant hSIRPγ; not shown: His-tag

[7] = biological target: T7, full-length human SIRPβ1 (NP_006056.2) on cells (human, UniProt O00241 30-398); experiment: flow cytometry, U937 SIRPα-KO cells expressing full-length human SIRPβ1
T7 construct: also called β1 WT
Experimental: as §1

T1 sequence (Q5TFQ8 30-398): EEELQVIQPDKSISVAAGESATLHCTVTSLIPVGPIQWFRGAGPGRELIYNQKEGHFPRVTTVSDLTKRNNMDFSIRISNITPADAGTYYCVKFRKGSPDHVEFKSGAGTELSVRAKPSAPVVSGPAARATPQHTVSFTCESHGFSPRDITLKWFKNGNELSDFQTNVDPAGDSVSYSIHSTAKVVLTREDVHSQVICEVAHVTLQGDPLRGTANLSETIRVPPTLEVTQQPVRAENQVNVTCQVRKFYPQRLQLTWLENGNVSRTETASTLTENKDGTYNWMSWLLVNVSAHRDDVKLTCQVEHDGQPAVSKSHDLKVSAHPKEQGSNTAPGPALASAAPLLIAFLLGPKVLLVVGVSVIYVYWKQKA
T2 sequence (Q9P1W8 29-387): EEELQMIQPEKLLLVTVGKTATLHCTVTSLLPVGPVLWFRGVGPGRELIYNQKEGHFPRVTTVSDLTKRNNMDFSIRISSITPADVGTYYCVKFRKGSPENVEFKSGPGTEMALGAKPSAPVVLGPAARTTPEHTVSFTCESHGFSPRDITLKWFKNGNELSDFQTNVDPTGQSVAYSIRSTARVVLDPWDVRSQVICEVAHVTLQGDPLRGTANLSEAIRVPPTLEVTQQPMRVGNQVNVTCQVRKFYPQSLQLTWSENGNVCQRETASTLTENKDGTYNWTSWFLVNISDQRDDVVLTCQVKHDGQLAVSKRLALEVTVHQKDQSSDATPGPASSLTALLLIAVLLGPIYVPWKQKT
T7 sequence (O00241 30-398): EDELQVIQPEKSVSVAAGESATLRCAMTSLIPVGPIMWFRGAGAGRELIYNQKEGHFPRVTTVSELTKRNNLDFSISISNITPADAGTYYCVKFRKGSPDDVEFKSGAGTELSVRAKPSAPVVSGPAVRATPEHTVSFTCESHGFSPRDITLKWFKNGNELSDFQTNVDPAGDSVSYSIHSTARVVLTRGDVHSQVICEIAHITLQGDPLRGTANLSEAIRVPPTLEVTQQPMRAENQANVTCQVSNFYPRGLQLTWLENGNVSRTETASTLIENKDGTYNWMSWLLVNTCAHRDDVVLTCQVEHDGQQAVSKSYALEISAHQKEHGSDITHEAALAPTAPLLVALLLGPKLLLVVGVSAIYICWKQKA
T6 sequence (Q9P1W8 29-360): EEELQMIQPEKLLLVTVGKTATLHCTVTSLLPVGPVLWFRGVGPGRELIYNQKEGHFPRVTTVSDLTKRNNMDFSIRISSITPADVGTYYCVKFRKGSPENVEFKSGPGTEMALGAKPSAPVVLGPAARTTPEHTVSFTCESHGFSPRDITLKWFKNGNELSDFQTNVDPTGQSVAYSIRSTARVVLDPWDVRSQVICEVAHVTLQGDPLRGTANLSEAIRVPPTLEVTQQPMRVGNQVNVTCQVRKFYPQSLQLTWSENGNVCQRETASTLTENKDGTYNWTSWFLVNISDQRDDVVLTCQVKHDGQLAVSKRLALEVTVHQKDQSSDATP

B2: Antibody A (antibody, human IgG1, kappa, L234A L235A)
heavy: not shown
light: DIQMTQSPSSLSASVGDRVTITCRASQDINNYLAWFQQKPGKAPKSLIYTASSLHSGVPSKFSGSGSGTDFTLTISSLQPEDFATYYCQQYVSYPYTFGQGTKLEIKRTVAAPSVFIFPPSDEQLKSGTASVVCLLNNFYPREAKVQWKVDNALQSGNSQESVTEQDSKDSTYSLSSTLTLSKADYEKHKVYACEVTHQGLSSPVTKSFNRGEC
binding result [2]: no binding | fold weaker EC50 than on clone H3A9 [3]: ≤ 5 fold | fold weaker EC50 than on clone H3A9 [4]: ≤ 5 fold

B4: Anti-SIRPα antibody KWAR23 (antibody, V domains shown)
VH: EVQLQQSGAELVKPGASVKLSCTASGFNIKDYYIHWVQQRTEQGLEWIGRIDPEDGETKYAPKFQDKATITADTSSNTAYLHLSSLTSEDTAVYYCARWGAYWGQGTLVTVSS
VL: QIVLTQSPAIMSASPGEKVTLTCSASSSVSSSYLYWYQQKPGSSPKLWIYSTSNLASGVPARFSGSGSGTSYSLTISSMEAEDAASYFCHQWSSYPRTFGAGTKLELK
EC50 [5]: 0.5 nM | EC50 [6]: 0.1 nM

Now from value to binder:

binding result [1]: no binding (tested: about 200 nM)
B1: Antibody A (antibody, human IgG1, kappa, L234A L235A)
heavy: not shown
light: B2 light

fold weaker EC50 than on clone H3A9 [3]: ≤ 5 fold | fold weaker EC50 than on clone H3A9 [4]: ≤ 5 fold
B3: Antibody A10 (antibody, human IgG1, kappa, L234A L235A)
heavy: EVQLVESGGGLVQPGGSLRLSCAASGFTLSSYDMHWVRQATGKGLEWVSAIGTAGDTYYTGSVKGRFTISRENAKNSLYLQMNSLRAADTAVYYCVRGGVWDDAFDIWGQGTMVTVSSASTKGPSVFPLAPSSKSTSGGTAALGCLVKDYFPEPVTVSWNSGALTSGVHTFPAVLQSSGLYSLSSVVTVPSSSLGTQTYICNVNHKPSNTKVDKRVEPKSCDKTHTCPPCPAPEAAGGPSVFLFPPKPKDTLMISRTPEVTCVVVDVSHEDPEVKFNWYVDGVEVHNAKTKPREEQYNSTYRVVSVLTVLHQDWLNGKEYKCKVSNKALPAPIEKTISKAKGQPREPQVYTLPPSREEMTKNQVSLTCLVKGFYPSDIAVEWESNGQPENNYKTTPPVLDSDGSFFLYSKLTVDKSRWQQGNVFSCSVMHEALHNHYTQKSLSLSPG
light: B2 light

binding result [7]: no binding (tested: about 200 nM)
B5: Antibody E22 (antibody, human IgG1, kappa, L234A L235A, V domains shown)
VH: QVQLQESGPGLVKPSETLSLTCTVSGGSIRDYYWSWIRQPPGKGLEWIGFIYYNGRTFYQSSLKSRVTISLDTSKNQFSLKMTSVTAADTAVYYCARVRAYSGIGLDGTDVWGQGTTVTVSS
VL: DIVMTQSPLSLPVTPGEPASISCRSSQSLLYSTGYTYLDWYLQRPGQSPQLLIYGGSSRASGVPDRFSGSGSGTDFTLKISRVEAEDVGVFYCGQALQTPLTFGQGTKVEIKR
